Assay results: US20260242735A1 (UNIVERSIT T BASEL, published 2026)

How the values were obtained:
Experiment in all cases: flow cytometry, transfected cells
[1] = biological target: human CD33 F44T (human, UniProt P20138 18-364)
[2] = biological target: human CD33 D51K (human, UniProt P20138 18-364)
[3] = biological target: human CD33 F44V (human, UniProt P20138 18-364)
[4] = biological target: human CD33 I47Y (human, UniProt P20138 18-364)
[5] = biological target: human CD33 F44D (human, UniProt P20138 18-364)
[6] = biological target: human CD33 Y49P (human, UniProt P20138 18-364)
[7] = biological target: human CD33 Y49G (human, UniProt P20138 18-364)
[8] = biological target: human CD33 F44S (human, UniProt P20138 18-364)
[9] = biological target: human CD33 R122E (human, UniProt P20138 18-364)
[10] = biological target: human CD33 F44I (human, UniProt P20138 18-364)
[11] = biological target: human CD33 I47R (human, UniProt P20138 18-364)
[12] = biological target: human CD33 F44E (human, UniProt P20138 18-364)
[13] = biological target: human CD33 Y49C (human, UniProt P20138 18-364)
[14] = biological target: human CD33 I47L (human, UniProt P20138 18-364)
[15] = biological target: human CD33 R122T (human, UniProt P20138 18-364)
[16] = biological target: human CD33 I47F (human, UniProt P20138 18-364)
[17] = biological target: human CD33 R122F (human, UniProt P20138 18-364)
[18] = biological target: human CD33 K52D (human, UniProt P20138 18-364)
[19] = biological target: human CD33 I47G (human, UniProt P20138 18-364)
[20] = biological target: human CD33 I47T (human, UniProt P20138 18-364)
[21] = biological target: human CD33 I47P (human, UniProt P20138 18-364)
[22] = biological target: human CD33 R122I (human, UniProt P20138 18-364)
[23] = biological target: human CD33 Y49D (human, UniProt P20138 18-364)
[24] = biological target: human CD33 I47Q (human, UniProt P20138 18-364)
[25] = biological target: human CD33 F44L (human, UniProt P20138 18-364)
[26] = biological target: human CD33 R122S (human, UniProt P20138 18-364)
[27] = biological target: human CD33 F44H (human, UniProt P20138 18-364)
[28] = biological target: human CD33 I47E (human, UniProt P20138 18-364)
[29] = biological target: human CD33 I47S (human, UniProt P20138 18-364)
[30] = biological target: human CD33 F44P (human, UniProt P20138 18-364)
[31] = biological target: human CD33 F44Q (human, UniProt P20138 18-364)
[32] = biological target: human CD33 I47W (human, UniProt P20138 18-364)
[33] = biological target: human CD33 I47N (human, UniProt P20138 18-364)

Measured: binding result

Chain of human CD33 R122F (P20138 18-364 R122F limits assumed): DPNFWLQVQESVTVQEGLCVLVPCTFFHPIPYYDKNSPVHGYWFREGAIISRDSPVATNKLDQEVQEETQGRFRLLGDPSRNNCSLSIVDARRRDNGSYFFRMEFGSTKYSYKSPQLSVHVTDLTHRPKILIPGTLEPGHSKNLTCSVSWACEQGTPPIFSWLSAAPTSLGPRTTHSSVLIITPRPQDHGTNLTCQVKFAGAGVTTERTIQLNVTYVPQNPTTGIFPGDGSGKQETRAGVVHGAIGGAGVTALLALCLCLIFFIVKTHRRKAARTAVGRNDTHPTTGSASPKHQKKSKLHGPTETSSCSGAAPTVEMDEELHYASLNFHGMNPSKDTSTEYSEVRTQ
Chain of human CD33 R122I (P20138 18-364 R122I limits assumed): as the sequence (P20138 18-364 R122F limits assumed) above, with F105I counted along it
Chain of human CD33 I47F (P20138 18-364 I47F limits assumed): as the sequence (P20138 18-364 R122F limits assumed) above, with I30F, F105R counted along it
Chain of human CD33 I47Q (P20138 18-364 I47Q limits assumed): as the sequence (P20138 18-364 R122F limits assumed) above, with I30Q, F105R counted along it
Chain of human CD33 F44E (P20138 18-364 F44E limits assumed): as the sequence (P20138 18-364 R122F limits assumed) above, with F27E, F105R counted along it
Chain of human CD33 F44L (P20138 18-364 F44L limits assumed): as the sequence (P20138 18-364 R122F limits assumed) above, with F27L, F105R counted along it
Chain of human CD33 D51K (P20138 18-364 D51K limits assumed): as the sequence (P20138 18-364 R122F limits assumed) above, with D34K, F105R counted along it
Chain of human CD33 I47R (P20138 18-364 I47R limits assumed): as the sequence (P20138 18-364 R122F limits assumed) above, with I30R, F105R counted along it
Chain of human CD33 I47G (P20138 18-364 I47G limits assumed): as the sequence (P20138 18-364 R122F limits assumed) above, with I30G, F105R counted along it
Chain of human CD33 R122S (P20138 18-364 R122S limits assumed): as the sequence (P20138 18-364 R122F limits assumed) above, with F105S counted along it
Chain of human CD33 F44T (P20138 18-364 F44T limits assumed): as the sequence (P20138 18-364 R122F limits assumed) above, with F27T, F105R counted along it
Chain of human CD33 Y49G (P20138 18-364 Y49G limits assumed): as the sequence (P20138 18-364 R122F limits assumed) above, with Y32G, F105R counted along it
Chain of human CD33 Y49D (P20138 18-364 Y49D limits assumed): as the sequence (P20138 18-364 R122F limits assumed) above, with Y32D, F105R counted along it
Chain of human CD33 K52D (P20138 18-364 K52D limits assumed): as the sequence (P20138 18-364 R122F limits assumed) above, with K35D, F105R counted along it
Chain of human CD33 I47Y (P20138 18-364 I47Y limits assumed): as the sequence (P20138 18-364 R122F limits assumed) above, with I30Y, F105R counted along it
Chain of human CD33 I47N (P20138 18-364 I47N limits assumed): as the sequence (P20138 18-364 R122F limits assumed) above, with I30N, F105R counted along it
Chain of human CD33 R122T (P20138 18-364 R122T limits assumed): as the sequence (P20138 18-364 R122F limits assumed) above, with F105T counted along it
Chain of human CD33 Y49C (P20138 18-364 Y49C limits assumed): as the sequence (P20138 18-364 R122F limits assumed) above, with Y32C, F105R counted along it
Chain of human CD33 F44I (P20138 18-364 F44I limits assumed): as the sequence (P20138 18-364 R122F limits assumed) above, with F27I, F105R counted along it
Chain of human CD33 F44S (P20138 18-364 F44S limits assumed): as the sequence (P20138 18-364 R122F limits assumed) above, with F27S, F105R counted along it
Chain of human CD33 R122E (P20138 18-364 R122E limits assumed): as the sequence (P20138 18-364 R122F limits assumed) above, with F105E counted along it
Chain of human CD33 F44D (P20138 18-364 F44D limits assumed): as the sequence (P20138 18-364 R122F limits assumed) above, with F27D, F105R counted along it
Chain of human CD33 I47P (P20138 18-364 I47P limits assumed): as the sequence (P20138 18-364 R122F limits assumed) above, with I30P, F105R counted along it
Chain of human CD33 F44P (P20138 18-364 F44P limits assumed): as the sequence (P20138 18-364 R122F limits assumed) above, with F27P, F105R counted along it
Chain of human CD33 I47S (P20138 18-364 I47S limits assumed): as the sequence (P20138 18-364 R122F limits assumed) above, with I30S, F105R counted along it
Chain of human CD33 F44V (P20138 18-364 F44V limits assumed): as the sequence (P20138 18-364 R122F limits assumed) above, with F27V, F105R counted along it
Chain of human CD33 I47W (P20138 18-364 I47W limits assumed): as the sequence (P20138 18-364 R122F limits assumed) above, with I30W, F105R counted along it
Chain of human CD33 I47E (P20138 18-364 I47E limits assumed): as the sequence (P20138 18-364 R122F limits assumed) above, with I30E, F105R counted along it
Chain of human CD33 I47T (P20138 18-364 I47T limits assumed): as the sequence (P20138 18-364 R122F limits assumed) above, with I30T, F105R counted along it
Chain of human CD33 F44Q (P20138 18-364 F44Q limits assumed): as the sequence (P20138 18-364 R122F limits assumed) above, with F27Q, F105R counted along it
Chain of human CD33 F44H (P20138 18-364 F44H limits assumed): as the sequence (P20138 18-364 R122F limits assumed) above, with F27H, F105R counted along it
Chain of human CD33 I47L (P20138 18-364 I47L limits assumed): as the sequence (P20138 18-364 R122F limits assumed) above, with I30L, F105R counted along it
Chain of human CD33 Y49P (P20138 18-364 Y49P limits assumed): as the sequence (P20138 18-364 R122F limits assumed) above, with Y32P, F105R counted along it

B1: Refmab #2 (antibody, human IgG1, V domains shown)
VH: QVQLVQSGAEVKKPGSSVKVSCKASGGTFSDYAISWVRQAPGQGLEWMGRIIPILGVADYAQKFQGRVTITADKSTRTAYMELSSLRSEDTAVYYCARNWADAFDIWGQGTMVTVSS
VL: DIQLTQSPSSLSASVGDRVTITCRASQGISSVLAWYQQKPGKAPKLLIYDASSLESGVPSRFSGSGSGTDFTLTISSLQPEDFATYYCQQFDSSITFGQGTKLEIK
no binding (tested: below 20%): all assays above
